Measured values from patent US20240124556A1, “KERATIN BD-3, PREPARATION METHOD THEREFOR AND PHARMACEUTICAL COMPOSITION AND USE THEREOF” (INSTITUTE OF MATERIA MEDICA, CHINESE ACADEMY OF MEDICAL …, priority 2019, published 2024).

What was measured:
[1] = tested on: yeast-induced fever model in SD rats; experiment: Yeast-induced fever model of SD rats; format: in vivo; details: for Body temperature 2 hours after modeling / Body temperature 8 hours after modeling / Body temperature 4 hours after modeling / Body temperature 6 hours after modeling: 20% yeast s.c.; for Body temperature 2 hours after modeling: model group 37.5 ± 0.1; for Body temperature 8 hours after modeling: model group 37.6 ± 0.1; for Body temperature 4 hours after modeling / Body temperature 6 hours after modeling: model group 37.7 ± 0.1
Procedure: • Animals: 230-260 grams of male SD rats; • Medicines: yeast (OXOID LP0021), aspirin (SIGMA A2093), protein BD-3; • Instruments: electronic balance (SARTORIUS BP121S type), electronic clinical thermometer (CITIZEN CT-513W type). • Experiment grouping: • Normal control group; • Model group: yeast fever model; • Positive control group: Aspirin 300 mg/kg group; • Protein BD-3, 10 mg/kg group, 50 mg/kg group. • Method:
Preparation of experimental animals: After the experimental animals adapt to the experimental environment (temperature 22° C.±2° C., relative humidity 50%±2%) for 1 day. Pre-adaptation to measure rectal temperature at 8:00 and 15:00, rats were fasted and water was taken freely 12 h before experiment, and let the animal to empty its feces before measuring the rectal temperature. Apply petroleum jelly to the electronic thermometer probe before each temperature measurement. Insert the rat rectum 2 cm (can be marked at 2 cm to ensure that the depth of each insertion is consistent), and record the body temperature after the reading is stable.
Subcutaneous injection of dry yeast to replicate rat fever model: The body temperature of the rats was measured before modeling. Qualified rats with a body temperature of 36.2-37.3° C. were selected and randomly divided into groups with 8 rats in each group. After oral administration of aspirin and different doses of protein BD-3, 20% yeast suspension (10 ml/kg) was injected subcutaneously immediately, and the normal control group was injected intraperitoneally with an equal volume of normal saline. The body temperatures of the rats were monitored after 2 hours for a total of 8 hours.
According to the body temperature measured at each time point on the day of the experiment, calculate the mean, standard deviation and standard error of the body temperature of each group of rats. The data of each group was compared with TTEST, and P<0.05 was considered as a significant difference.

[2] = tested on: phenol red excretion in mice; experiment: Expectorant test, phenol red excretion method in mice; format: in vivo, ICR mice; details: for Phenol red excretion: X ± SEM, solvent control 0.506 ± 0.040
Procedure: • Animals: male ICR mice; • Drugs and reagents: Mucosolvan (ambroxol hydrochloride tablets), phenol red, sodium bicarbonate, protein BD-3; • Instruments: centrifuge (Sigma-3K15 type), balance (XS105DU type), Microplate tester (BIO-TEK type). • Experiment Grouping: • Solvent control group; • Mucosolvan 30 mg/kg group; • Protein BD-3, 20 mg/kg group, 50 mg/kg group.
The animals were fasted and water was taken freely 16 hours before the experiment. Orally administered Mucosolvan and different doses of protein BD-3 (administration volume 10 ml/kg) in groups, and the solvent control group was given the same volume of distilled water. One hour later, 2.5% phenol red solution was injected intraperitoneally. Mice were sacrificed by neck dislocation after 30 minutes. Take a trachea from below the thyroid cartilage to the branch of the trachea, and put the trachea into 3 ml 5% NaHCO3 solution and let it stand for 3 hours. Take 1 ml of the supernatant and centrifuge at 3000 rpm for 5 minutes. Measure and record the absorbance at 546 nm. According to the standard curve of phenol red, the excretion of phenol red was calculated.
Record the time point of oral administration, the time point of intraperitoneal injection of 2.5% phenol red solution, and the time point of taking the trachea respectively; The absorbance of each group of samples was measured by the microplate reader at 546 nm, Calculate the excretion of phenol red according to the standard curve of phenol red. Calculate the mean and standard error of the data in each group, and use TTEST to compare the solvent control group with other groups, and P<0.05 is considered as a significant difference.

[3] = tested on: cough induced by ammonia water in mice; experiment: Antitussive test, cough induced by ammonia water in mice; format: in vivo, ICR mice; details: for Incubation period (cough) / Number of coughs: X ± SEM; for Incubation period (cough): solvent control 26.9 ± 2.3; for Number of coughs: within 2 minutes, solvent control 67.1 ± 5.7
Procedure: • Animals: male ICR mice; • Drugs and reagents: dextromethorphan hydrobromide, ammonia water, 0.2% CMC-Na, protein BD-3; • Apparatus: Compressed nebulizer (403T type), balance (XS105DU type). • Experiment grouping: • Solvent control group; • Dextromethorphan 15 mg/kg group; • Protein BD-3, 20 mg/kg group, 50 mg/kg group.
Dextromethorphan and different doses of protein BD-3 (administration volume 10 ml/kg) were given orally in groups, and the solvent control group was given the same volume of distilled water. One hour later, mice were put into a sealed box and atomized 10% ammonia water for 10 seconds, and then observed and recorded the incubation period of cough in mice and the number of coughs in 2 minutes.
Record the time point of oral administration, the time point of atomization experiment, the incubation period of mice cough and the number of coughs within 2 minutes, respectively. The incubation period of cough refers to the number of seconds from the start of the atomization of ammonia to the occurrence of cough. The performance of coughing in mice is based on contraction of their abdominal muscles (breast contraction) and opening their mouths at the same time. Calculate the mean and standard error of each group of data, and use TTEST to compare the model group with other groups, and P<0.05 is considered as a significant difference.

[4] = summary statement, no dose given

B1: BD-3: recombinant keratin, amino acid sequence SEQ ID NO:1, expressed in E. coli, band around 43 kD; tested material prepared in Example 4 (protein, listed as Bos taurus)
chain: MSYSCCLPNLSFRSSCSSRPCVPSSCCGTTLPGACNIPANVGSCNWFCEGSFNGSEKETMQFLNDRLASYLEKVRQLERDNAELESRILERSQQKILANKAENARLVVQIDNAKLAADDFRTKYQTELGLRQLVESDINGLRRILDELTLCKSDLEAQVESLKEELICLKQNHEQEVNTLRSQLGDRLNVEVDAAPTVDLNRVLNETRAQYEALVETNRRDVEEWYIRQTEELNKQVVSSSEQLQSYQAEIIELRRTVNALEVELQAQHNLRDSLENTLTETEARYSCQLAQVQGLIGNVESQLAEIRSDLERQNQEYQVLLDVRARLECEINTYRGLLDSEDCKLPCNPCATTNASSVGSCVTNPCTPCGPRSRFGPCNTFGC
- Body temperature 2 hours after modeling ([1]; BD-3 10 mg/kg oral): 37.0 ± 0.2 °C
- Body temperature 8 hours after modeling ([1]; BD-3 10 mg/kg oral): 37.4 ± 0.1 °C
- Body temperature 4 hours after modeling ([1]; BD-3 10 mg/kg oral): 37.3 ± 0.1 °C
- Body temperature 6 hours after modeling ([1]; BD-3 10 mg/kg oral): 37.4 ± 0.1 °C
- Body temperature 2 hours after modeling ([1]; BD-3 50 mg/kg oral): 36.9 ± 0.1 °C
- Body temperature 8 hours after modeling ([1]; BD-3 50 mg/kg oral): 37.3 ± 0.1 °C
- Body temperature 4 hours after modeling ([1]; BD-3 50 mg/kg oral): 37.2 ± 0.1 °C
- Body temperature 6 hours after modeling ([1]; BD-3 50 mg/kg oral): 37.4 ± 0.1 °C
- Effect on body temperature of model rats (in words) ([1]; different doses of BD-3 (10 mg/kg, 50 mg/kg), at 2 hours and 4 hours after modeling, P<0.05 vs model group): can significantly inhibit the increase in body temperature of model rats
- Summary: antipyretic effect in yeast fever model (in words) [1, 4]: can significantly inhibit the increase in body temperature at 2 hours and 4 hours after modeling
- Phenol red excretion ([2]; BD-3 20 mg/kg oral): 0.750 ± 0.085 µg/mL
- Excretion of phenol red vs solvent control (in words) ([2]; BD-3 20 mg/kg, P<0.05): significantly increased the excretion of phenol red
- Phenol red excretion ([2]; BD-3 50 mg/kg oral): 0.706 ± 0.114 µg/mL
- Summary: expectorant effect (in words) [2, 4]: has obvious expectorant effect
- Incubation period (cough) ([3]; BD-3 20 mg/kg oral): 31.6 ± 3.3 s
- Number of coughs ([3]; BD-3 20 mg/kg oral): 46.7 ± 4.1
- Number of coughs vs solvent control (in words) ([3]; BD-3 20 mg/kg, P<0.05): significant improvement in the number of coughs
- Incubation period (cough) ([3]; BD-3 50 mg/kg oral): 34.2 ± 2.1 s
- Number of coughs ([3]; BD-3 50 mg/kg oral): 53.6 ± 3.7
- Cough incubation period vs solvent control (in words) ([3]; BD-3 50 mg/kg, P<0.05): significant improvement in the incubation period
- Summary: antitussive effect (in words) [3, 4]: can significantly extend the incubation period, significantly reduce the number of coughs
